Measured values published in publication PMC10498682, “Selection of optimised ligands by fluorescence-activated bead sorting†”.

Target: EGFR extracellular domain, Fc fusion (EGFR-Fc) (UniProt P00533 25-644)
Test: ELISA-type plate assay; EGFR-Fc on protein A 96-well plates, biotinylated aptamer, streptavidin-AP chemiluminescence, n = 3; buffer, salt, pH and temperature not in the material
Details: protein: recombinant; tags: Fc; chain copies: 2; label: 5'-biotin; single strand

| Binder | Kd |
| --- | --- |
| GGAUUUAAUCGCCGUAGAAAAGCAUGUCAAAGCCGGAACCGUCC (structured_RNA, 2'-F on all C and U; 5-vinyl-U at 4,27 (U1,U7); 5-phenyl-U at 25 (U6); lacks 5' GGAC) [MinE07UC-Biotin] | 1.23 ± 0.1 nM |
| GGACGGAUUUAAUCGCCGUAGAAAAGCAUGUCAAAGCCGGAACCGUCC (structured_RNA, 2'-F on all C and U; 5-iodo on all 8 U (8,9,10,13,19,29,31,46)) [MinE07-U-I-Biotin] | 2.05 ± 0.26 nM |
| GGACGGAUUUAAUCGCCGUAGAAAAGCAUGUCAAAGCCGGAACCGUCC (structured_RNA, 2'-F on all C and U; 5-phenyl on all 8 U (8,9,10,13,19,29,31,46)) [MinE07-U-Ph-Biotin] | 3.59 ± 0.82 nM |
| GGACGGAUUUAAUCGCCGUAGAAAAGCAUGUCAAAGCCGGAACCGUCC (structured_RNA, 2'-F on all C and U; 5-vinyl-U at 8,31 (U1,U7); 5-phenyl-U at 29 (U6)) [MinE07UC'-Biotin] | 1.11 ± 0.45 nM |
| GGACGGAUUUAAUCGCCGUAGAAAAGCAUGUCAAAGCCGGAACCGUCC (structured_RNA, 2'-F on all C and U; 5-phenyl-U at 9,10,19 (U2,U3,U5); 5-iodo-U at 13 (U4)) [MinE07UB-Biotin] | 1.47 ± 0.54 nM |
| GGACGGAUUUAAUCGCCGUAGAAAAGCAUGUCAAAGCCGGAACCGUCC (structured_RNA, 2'-F on all C and U; 5-phenyl-U at 9,10,46 (U2,U3,U8); 5-iodo-U at 19 (U5)) [MinE07UA'-Biotin] | 3.39 ± 0.71 nM |
| GGACGGAUUUAAUCGCCGUAGAAAAGCAUGUCAAAGCCGGAACCGUCC (structured_RNA, 2'-F on all C and U; 5-vinyl on all 8 U (8,9,10,13,19,29,31,46)) [MinE07-U-Vi-Biotin] | 4.62 ± 0.48 nM |
| CGGAUUUAAUCGCCGUAGAAAAGCAUGUCAAAGCCGGAACCGUCC (structured_RNA, 2'-F on all C and U; 5-phenyl-U at 6,7,43 (U2,U3,U8); 5-iodo-U at 16 (U5); lacks 5' GGA) [MinE07UA-Biotin] | 1.53 ± 0.13 nM |

Same assay, conditions: protein: recombinant; tags: Fc; chain copies: 2; label: 5'-biotin; single strand; 5' and 3' ends base pair, three loops (predicted)

| Binder | Kd |
| --- | --- |
| GGACGGAUUUAAUCGCCGUAGAAAAGCAUGUCAAAGCCGGAACCGUCC (structured_RNA, 2'-F on all C and U; A and G ribo) [MinE07-Biotin] | 3.7 ± 0.38 nM |
